Experimental data from PMC2775414.

Molecular target: heavy meromyosin-like fragment of myosin Va (MyoV-HMM), with its bound calmodulin (mouse | not stated) (UniProt Q99104)
Sequence (Q99104 1-1090): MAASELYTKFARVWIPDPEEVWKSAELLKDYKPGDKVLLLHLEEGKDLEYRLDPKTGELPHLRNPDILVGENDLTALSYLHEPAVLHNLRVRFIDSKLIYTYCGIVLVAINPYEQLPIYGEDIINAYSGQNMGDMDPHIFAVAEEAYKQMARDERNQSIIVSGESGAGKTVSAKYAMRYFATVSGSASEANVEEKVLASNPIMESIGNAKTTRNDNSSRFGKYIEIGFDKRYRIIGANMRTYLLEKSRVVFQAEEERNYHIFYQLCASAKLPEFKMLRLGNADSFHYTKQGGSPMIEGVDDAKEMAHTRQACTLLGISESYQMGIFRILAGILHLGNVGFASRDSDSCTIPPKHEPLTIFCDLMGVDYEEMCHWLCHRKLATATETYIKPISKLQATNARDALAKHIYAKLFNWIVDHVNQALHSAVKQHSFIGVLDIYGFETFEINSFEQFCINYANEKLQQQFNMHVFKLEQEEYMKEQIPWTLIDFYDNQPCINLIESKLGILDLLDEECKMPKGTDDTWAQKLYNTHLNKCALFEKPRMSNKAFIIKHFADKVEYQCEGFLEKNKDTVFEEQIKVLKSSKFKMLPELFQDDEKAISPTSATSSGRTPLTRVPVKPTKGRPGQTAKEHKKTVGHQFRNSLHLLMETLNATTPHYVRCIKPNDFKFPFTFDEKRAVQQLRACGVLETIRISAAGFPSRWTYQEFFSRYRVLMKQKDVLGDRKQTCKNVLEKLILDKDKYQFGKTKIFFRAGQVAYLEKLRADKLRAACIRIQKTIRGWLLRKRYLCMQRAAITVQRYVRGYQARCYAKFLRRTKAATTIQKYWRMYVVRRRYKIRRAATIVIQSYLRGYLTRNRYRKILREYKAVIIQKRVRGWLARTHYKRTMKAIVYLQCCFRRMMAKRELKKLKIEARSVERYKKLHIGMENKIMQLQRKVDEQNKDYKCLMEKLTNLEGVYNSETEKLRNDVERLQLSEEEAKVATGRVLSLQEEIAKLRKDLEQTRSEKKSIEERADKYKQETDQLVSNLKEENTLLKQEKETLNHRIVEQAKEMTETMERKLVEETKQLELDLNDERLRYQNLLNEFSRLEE

labelled calmodulins exchanged per MyoV-HMM: 3 per MyoV-HMM
Substance: Alexa-Fluor-568-labelled calmodulin (from UniProt P62157 1-149) (natural protein)
